{
  "source": "paper PMC4554539",
  "origin": "cited, not measured here",
  "key": {"[1]": {"target": "IL18 receptor (Homo sapiens) (UniProt Q13478)", "sequence (Q13478 19-541)": "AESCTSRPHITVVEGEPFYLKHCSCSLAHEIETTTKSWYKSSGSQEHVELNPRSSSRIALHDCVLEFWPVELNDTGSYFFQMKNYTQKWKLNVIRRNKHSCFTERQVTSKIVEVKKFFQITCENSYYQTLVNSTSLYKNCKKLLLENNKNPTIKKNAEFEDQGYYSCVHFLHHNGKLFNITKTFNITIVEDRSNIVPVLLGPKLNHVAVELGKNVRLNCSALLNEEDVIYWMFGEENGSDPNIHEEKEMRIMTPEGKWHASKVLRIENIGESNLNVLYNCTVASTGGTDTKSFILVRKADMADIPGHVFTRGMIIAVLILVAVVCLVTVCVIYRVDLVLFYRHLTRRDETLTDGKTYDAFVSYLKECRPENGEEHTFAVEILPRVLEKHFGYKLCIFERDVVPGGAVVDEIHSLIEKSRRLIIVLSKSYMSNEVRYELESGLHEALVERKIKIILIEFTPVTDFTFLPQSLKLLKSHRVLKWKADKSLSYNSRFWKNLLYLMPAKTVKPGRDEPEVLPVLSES", "assay": "binding to L428 cells"}, "[2]": {"target": "IL18 receptor (Homo sapiens) (UniProt Q13478)", "assay": "binding to transfected COS-1 cells"}},
  "data": [
    {"substance": "IL18 (from UniProt Q14116)", "values": [
      {"measurement": "Kd", "setting": "[1]", "value": 18.5, "unit": "nM"},
      {"measurement": "Kd", "setting": "[2]", "value": 46, "unit": "nM"}
    ]}
  ]
}
